Assay results as given in patent publication US20200148732A1 (UNIVERSITY OF COPENHAGEN, published 2020).
Residue numbers refer to the chain shown, from its start.

Key:
[1] = target: T1, GFP-TONSL D559A (Homo sapiens, UniProt Q96HA7 1-1378); assay: GFP immunoprecipitation of GFP-TONSL from transfected HeLa S3 cells, western blot (co-IP; association may be indirect)
T1 construct: also called TONSL D559A / GFP; not shown: N-terminal GFP tag
T1 sequence: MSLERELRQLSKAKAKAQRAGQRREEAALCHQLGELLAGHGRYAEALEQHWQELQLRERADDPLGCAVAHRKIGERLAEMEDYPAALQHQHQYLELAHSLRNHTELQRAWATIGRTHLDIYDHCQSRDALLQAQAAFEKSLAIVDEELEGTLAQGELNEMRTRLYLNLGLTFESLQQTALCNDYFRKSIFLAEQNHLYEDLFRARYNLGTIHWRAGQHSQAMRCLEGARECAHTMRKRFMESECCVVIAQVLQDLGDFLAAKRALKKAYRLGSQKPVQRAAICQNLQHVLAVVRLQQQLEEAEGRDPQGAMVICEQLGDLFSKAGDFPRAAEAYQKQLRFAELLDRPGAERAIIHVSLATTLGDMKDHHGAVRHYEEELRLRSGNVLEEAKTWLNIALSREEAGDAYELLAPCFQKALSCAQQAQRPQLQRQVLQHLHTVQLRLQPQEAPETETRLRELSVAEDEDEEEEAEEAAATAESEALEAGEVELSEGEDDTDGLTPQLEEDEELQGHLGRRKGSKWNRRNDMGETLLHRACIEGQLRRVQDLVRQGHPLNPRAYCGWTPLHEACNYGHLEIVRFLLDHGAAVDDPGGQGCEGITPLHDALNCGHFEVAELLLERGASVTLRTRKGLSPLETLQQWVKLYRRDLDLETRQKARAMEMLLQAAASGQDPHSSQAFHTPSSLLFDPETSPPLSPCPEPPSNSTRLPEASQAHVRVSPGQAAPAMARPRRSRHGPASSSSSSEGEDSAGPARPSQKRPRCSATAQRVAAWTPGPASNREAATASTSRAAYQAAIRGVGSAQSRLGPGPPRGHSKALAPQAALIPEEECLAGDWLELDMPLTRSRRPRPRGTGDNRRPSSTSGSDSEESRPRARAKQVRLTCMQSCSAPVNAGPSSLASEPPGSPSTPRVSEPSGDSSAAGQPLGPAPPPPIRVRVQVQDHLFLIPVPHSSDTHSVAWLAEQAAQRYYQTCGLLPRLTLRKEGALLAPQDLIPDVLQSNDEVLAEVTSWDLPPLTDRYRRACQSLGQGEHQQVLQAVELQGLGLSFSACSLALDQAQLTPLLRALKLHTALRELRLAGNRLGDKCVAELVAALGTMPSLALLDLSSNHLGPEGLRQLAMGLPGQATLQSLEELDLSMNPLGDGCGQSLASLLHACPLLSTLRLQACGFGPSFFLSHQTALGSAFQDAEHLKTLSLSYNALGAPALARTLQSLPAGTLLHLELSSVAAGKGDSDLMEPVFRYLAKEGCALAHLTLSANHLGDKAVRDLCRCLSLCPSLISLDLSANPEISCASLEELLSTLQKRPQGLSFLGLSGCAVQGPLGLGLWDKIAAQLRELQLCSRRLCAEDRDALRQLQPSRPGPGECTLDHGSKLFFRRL

[2] = target: T2, GFP-TONSL W563A (Homo sapiens, UniProt Q96HA7 1-1378); assay: as above
T2 construct: also called TONSL W563A / GFP; not shown: N-terminal GFP tag
T2 sequence: T1 sequence with A559D, W563A

B1: MMS22L (endogenous, in cell extracts) (other, UniProt Q6ZRQ5 1-1243, looked up)
chain: MENCSAASTFLTDSLELELGTEWCKPPYFSCAVDNRGGGKHFSGESYLCSGALKRLILNLDPLPTNFEEDTLEIFGIQWVTETALVNSSRELFHLFRQQLYNLETLLQSSCDFGKVSTLHCKADNIRQQCVLFLHYVKVFIFRYLKVQNAESHVPVHPYEALEAQLPSVLIDELHGLLLYIGHLSELPSVNIGAFVNQNQIKLFPPSWHLLHLHLDIHWLVLEILYMLGEKLKQVVYGHQFMNLASDNLTNISLFEEHCETLLCDLISLSLNRYDKVRSSESLMSDQCPCLCIKELWVLLIHLLDHRSKWFVSESFWNWLNKLLKTLLEKSSDRRRSSMPVIQSRDPLGFSWWIITHVASFYKFDRHGVPDEMRKVESNWNFVEELLKKSISVQGVILEEQLRMYLHCCLTLCDFWEPNIAIVTILWEYYSKNLNSSFSISWLPFKGLANTMKSPLSMLEMVKTCCCDKQDQELYKSSSSYTIFLCILAKVVKKAMKSNGPHPWKQVKGRIYSKFHQKRMEELTEVGLQNFFSLFLLLAAVAEVEDVASHVLDLLNFLKPAFVTSQRALIWKGHMAFLLMYAQKNLDIGVLAEKFSCAFREKAKEFLVSKNEEMVQRQTIWTLLSIYIDGVQEVFETSYCLYPSHEKLLNDGFSMLLRACRESELRTVLSFLQAVLARIRSMHQQLCQELQRDNVDLFVQSSLSAKERHLAAVASALWRHFFSFLKSQRMSQVVPFSQLADAAADFTLLAMDMPSTAPSDFQPQPVISIIQLFGWDDIICPQVVARYLSHVLQNSTLCEALSHSGYVSFQALTVRSWIRCVLQMYIKNLSGPDDLLIDKNLEEAVEKEYMKQLVKLTRLLFNLSEVKSIFSKAQVEYLSISEDPKKALVRFFEAVGVTYGNVQTLSDKSAMVTKSLEYLGEVLKYIKPYLGKKVFSAGLQLTYGMMGILVKSWAQIFATSKAQKLLFRIIDCLLLPHAVLQQEKELPAPMLSAIQKSLPLYLQGMCIVCCQSQNPNAYLNQLLGNVIEQYIGRFLPASPYVSDLGQHPVLLALRNTATIPPISSLKKCIVQVIRKSYLEYKGSSPPPRLASILAFILQLFKETNTDIYEVELLLPGILKCLVLVSEPQVKRLATENLQYMVKACQVGSEEEPSSQLTSVFRQFIQDYGMRYYYQVYSILETVATLDQQVVIHLISTLTQSLKDSEQKWGLGRNIAQREAYSKLLSHLGQMGQDEMQRLENDNT
binding result [1]: binds
binding result [2]: binds
